From the supplement of paper PMC7877785
± gives the uncertainty stated by the source.

Assay: self-splicing fitness, log relative to wild type (ln ratio); higher = more splicing; Tetrahymena group I intron in knt gene, E. coli kanamycin selection, DiMSum; sequences stand for … in CUCUCU…GGAGGGAAAAGUUAUCAGGCAUGCACCUGGUAGCUAGUCUUUAAACCAAUAGAUUGCAUCGGUUUAAAAGGCAAGACCGUCAAAUUGCGGGAAAGGGGUCAACAGCCGUUCAGUACCAAGUCUCAGGGGAAACUUUGAGAUGGCCUUGCAAAGGGUAUGGUAAUAAGCUGACGGACAUGGUCCUAACCACGCAGCCAAGUCCUAAGUCAACAGAUCUUCUGUUGAUAUGGAUGCAGUUCACAGACUAAAUGUCGGUCGGGGAAGAUGUAUUCUUCUCAUAAGAUAUAGUCGGACCUCUCCUUAAUGGGAGCUAGCGGAUGAAGUGAUGCAACACUGGAGCCGCUGGGAACUAAUUUGUAUGCGAAAGUAUAUUGAUUAGUUUUGGAGUACUCGUGGUCG
How it was run: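 The eight P1ex-region nucleotides of an intron in the knt kanamycin-resistance gene on pET-22b(+) were all randomised and the library put into E. coli BL21(DE3). Six replicate transformations were grown overnight at 37°C or 30°C on LB agar with or without 25 μg/mL kanamycin, together with 100 μg/mL carbenicillin, 50 μM IPTG and 0.2% rhamnose. Colonies were pooled and amplicon-sequenced on an Illumina HiSeq 2500. Fitness from DiMSum is the error-weighted combination of wild-type-normalised replicate fold changes, kanamycin over none.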

| Sequence | self-splicing fitness (ln) (30 °C) | self-splicing fitness (ln) (37 °C) |
| --- | --- | --- |
| GGCUAGCAAUAUUACGGUCC | -4.11 ± 0.33 | -2.97 ± 0.28 |
| GGCUAGCAAUAUUACGGUGA | -0.0349 ± 0.072 | 0.281 ± 0.086 |
| GGCUAGCAAUAUUACGGUUG | -0.166 ± 0.076 | -0.197 ± 0.098 |
| GGCUAGCAAUAUUACGUAAU | -0.265 ± 0.1 | 0.283 ± 0.12 |
| GGCUAGCAAUAUUACGUACG | -0.805 ± 0.1 | 0.365 ± 0.11 |
| GGCUAGCAAUAUUACGUAGU | -3.29 ± 0.17 | -2.04 ± 0.2 |
| GGCUAGCAAUAUUACGUCUA | -0.349 ± 0.13 | -0.105 ± 0.11 |
| GGCUAGCAAUAUUACGUGCC | -2.22 ± 0.25 |  |
| GGCUAGCAAUAUUACGUUAC | -1.55 ± 0.069 | -0.888 ± 0.093 |
| GGCUAGCAAUAUUACGUUCC | -1.62 ± 0.11 | -0.39 ± 0.11 |
| GGGAAGCAAUAUUACGAAUG |  | -0.92 ± 0.34 |
| GGGAAGCAAUAUUACGAAUU | -0.943 ± 0.23 | -0.115 ± 0.21 |
| GGGAAGCAAUAUUACGACAA | -2 ± 0.2 | -1.34 ± 0.19 |
| GGGAAGCAAUAUUACGACUA | -0.9 ± 0.15 | 0.352 ± 0.17 |
| GGGAAGCAAUAUUACGACUG | -0.222 ± 0.088 | -0.457 ± 0.11 |
| GGGAAGCAAUAUUACGAGUA |  | -2.29 ± 0.36 |
| GGGAAGCAAUAUUACGAUAA | -1.61 ± 0.11 | -0.785 ± 0.15 |
| GGGAAGCAAUAUUACGCUCA |  | -0.0289 ± 0.38 |
| GGGAAGCAAUAUUACGCUGC | -2.83 ± 0.48 |  |
| GGGAAGCAAUAUUACGGAAC | -2.09 ± 0.2 | -2.13 ± 0.27 |
| GGGAAGCAAUAUUACGGAUU | -0.965 ± 0.07 | -0.737 ± 0.1 |
| GGGAAGCAAUAUUACGGCUC | -0.727 ± 0.12 | 0.0488 ± 0.17 |
| GGGAAGCAAUAUUACGGGCC | -2.03 ± 0.14 | -0.949 ± 0.13 |
| GGGAAGCAAUAUUACGUAGG | -3.64 ± 0.32 | -0.93 ± 0.11 |
| GGGAAGCAAUAUUACGUCUC | -3.97 ± 0.37 | -3 ± 0.35 |
| GGGAAGCAAUAUUACGUGCG | -1.4 ± 0.11 | -0.371 ± 0.13 |

| Sequence | self-splicing fitness (ln) (30 °C) | self-splicing fitness (ln) (37 °C) |
| --- | --- | --- |
| GGGAAGCAAUAUUACGUUAC | -2.75 ± 0.15 | -1.15 ± 0.14 |
| GGGCAGCAAUAUUACGAACG | -1.18 ± 0.12 | 0.475 ± 0.17 |
| GGGCAGCAAUAUUACGAAUG | -2.93 ± 0.17 | -2.12 ± 0.23 |
| GGGCAGCAAUAUUACGACAA | -1.53 ± 0.22 | -0.573 ± 0.18 |
| GGGCAGCAAUAUUACGAGAU | -3.14 ± 0.23 | -2.41 ± 0.32 |
| GGGCAGCAAUAUUACGAGGA |  | -2.97 ± 0.47 |
| GGGCAGCAAUAUUACGAUCA | -1.56 ± 0.13 | -0.598 ± 0.15 |
| GGGCAGCAAUAUUACGCCCG | -2.33 ± 0.23 |  |
| GGGCAGCAAUAUUACGCCUG | -1.27 ± 0.14 | 0.02 ± 0.13 |
| GGGCAGCAAUAUUACGCGAG | -0.948 ± 0.094 | -0.664 ± 0.098 |
| GGGCAGCAAUAUUACGCGUU | -0.662 ± 0.073 | -0.349 ± 0.087 |
| GGGCAGCAAUAUUACGCUGG | -3.14 ± 0.14 | -2.53 ± 0.16 |
| GGGCAGCAAUAUUACGCUUG | -0.914 ± 0.088 | 0.22 ± 0.13 |
| GGGCAGCAAUAUUACGGGAC | -2.3 ± 0.18 | -1.61 ± 0.18 |
| GGGCAGCAAUAUUACGGUGG | -3.42 ± 0.17 | -1.86 ± 0.16 |
| GGGCAGCAAUAUUACGUAUA | -1.85 ± 0.13 | -1.1 ± 0.14 |
| GGGCAGCAAUAUUACGUGCG | -0.439 ± 0.057 | -0.235 ± 0.077 |
| GGGCAGCAAUAUUACGUUAG | -1.81 ± 0.093 | -0.462 ± 0.13 |
| GGGCAGCAAUAUUACGUUAU | -1.68 ± 0.097 | -0.345 ± 0.12 |
| GGGCAGCAAUAUUACGUUCA | -0.593 ± 0.075 | -0.158 ± 0.12 |
| GGGGAGCAAUAUUACGAAAG | -3.12 ± 0.44 |  |
| GGGGAGCAAUAUUACGAAUU | -1.24 ± 0.19 | -0.992 ± 0.25 |
| GGGGAGCAAUAUUACGACUA | -0.712 ± 0.24 | -0.539 ± 0.29 |
| GGGGAGCAAUAUUACGAUCA | -1.45 ± 0.18 | -0.807 ± 0.19 |
| GGGGAGCAAUAUUACGCACU | -3.29 ± 0.36 |  |
| GGGGAGCAAUAUUACGCCUG | -2.33 ± 0.15 | -0.491 ± 0.13 |

| Sequence | self-splicing fitness (ln) (30 °C) | self-splicing fitness (ln) (37 °C) |
| --- | --- | --- |
| GGGGAGCAAUAUUACGCGAG | -1.54 ± 0.43 | -0.692 ± 0.24 |
| GGGGAGCAAUAUUACGGACG | -2.73 ± 0.32 | -1.21 ± 0.28 |
| GGGGAGCAAUAUUACGGAGC | -2.66 ± 0.33 | -1.79 ± 0.2 |
| GGGGAGCAAUAUUACGGAGG |  | -1.4 ± 0.35 |
| GGGGAGCAAUAUUACGGAUU | -3.35 ± 0.28 | -2.15 ± 0.23 |
| GGGGAGCAAUAUUACGGCUC |  | -0.173 ± 0.34 |
| GGGGAGCAAUAUUACGGUGA | -2.23 ± 0.36 |  |
| GGGGAGCAAUAUUACGGUGG | -3.04 ± 0.25 | -2.67 ± 0.24 |
| GGGGAGCAAUAUUACGGUGU | -3.87 ± 0.37 | -1.37 ± 0.22 |
| GGGGAGCAAUAUUACGUGUA | -3.7 ± 0.31 | -2.23 ± 0.22 |
| GGGGAGCAAUAUUACGUUAU | -3.58 ± 0.18 | -2.14 ± 0.16 |
| GGGUAGCAAUAUUACGAAUG | -2.18 ± 0.25 | -1.32 ± 0.4 |
| GGGUAGCAAUAUUACGACCG | -1.03 ± 0.18 | -0.642 ± 0.33 |
| GGGUAGCAAUAUUACGAGCU | -0.974 ± 0.17 | -1.33 ± 0.19 |
| GGGUAGCAAUAUUACGAGGG | -3.42 ± 0.33 | -2.55 ± 0.33 |
| GGGUAGCAAUAUUACGAUAA | -1.67 ± 0.13 | 0.147 ± 0.16 |
| GGGUAGCAAUAUUACGAUCC | -2.2 ± 0.37 | -1.47 ± 0.5 |
| GGGUAGCAAUAUUACGAUGU | -0.794 ± 0.1 | 0.357 ± 0.15 |
| GGGUAGCAAUAUUACGCAGU | -1.34 ± 0.16 | -1.02 ± 0.11 |
| GGGUAGCAAUAUUACGCAUU | -0.339 ± 0.094 | -0.245 ± 0.1 |
| GGGUAGCAAUAUUACGCCAC |  | -1.72 ± 0.48 |
| GGGUAGCAAUAUUACGCGAA | -0.995 ± 0.16 | -0.21 ± 0.13 |
| GGGUAGCAAUAUUACGGAGU | -2.36 ± 0.22 | -1.21 ± 0.2 |
| GGGUAGCAAUAUUACGGAUA | -1.74 ± 0.25 | -1.08 ± 0.29 |
| GGGUAGCAAUAUUACGGCAC | -0.322 ± 0.14 | -0.0485 ± 0.18 |
| GGGUAGCAAUAUUACGGCAG | -3.66 ± 0.4 | -2.62 ± 0.4 |

| Sequence | self-splicing fitness (ln) (30 °C) | self-splicing fitness (ln) (37 °C) |
| --- | --- | --- |
| GGGUAGCAAUAUUACGGGCA | -0.435 ± 0.25 | -0.58 ± 0.26 |
| GGGUAGCAAUAUUACGGUAG |  | -1.91 ± 0.23 |
| GGGUAGCAAUAUUACGGUCU | -0.845 ± 0.08 | -0.011 ± 0.11 |
| GGGUAGCAAUAUUACGUAGG | -2.74 ± 0.24 | -1.5 ± 0.2 |
| GGGUAGCAAUAUUACGUCCG | -0.212 ± 0.15 | -0.15 ± 0.19 |
| GGGUAGCAAUAUUACGUGCC | -0.954 ± 0.48 |  |
| GGGUAGCAAUAUUACGUGGG | -4.13 ± 0.32 | -2.29 ± 0.19 |
| GGGUAGCAAUAUUACGUGUC | -2.16 ± 0.18 | -0.684 ± 0.15 |
| GGGUAGCAAUAUUACGUUAC |  | -4.17 ± 0.46 |
| GGGUAGCAAUAUUACGUUCG | -0.742 ± 0.065 | 0.339 ± 0.086 |
| GGUAAGCAAUAUUACGAACA | -0.0165 ± 0.19 | -0.383 ± 0.18 |
| GGUAAGCAAUAUUACGAACG | -0.0623 ± 0.11 | -0.0489 ± 0.12 |
| GGUAAGCAAUAUUACGAACU | -1.25 ± 0.25 | -1.67 ± 0.36 |
| GGUAAGCAAUAUUACGACGA | -0.849 ± 0.098 | 0.225 ± 0.098 |
| GGUAAGCAAUAUUACGAGGA |  | -1.84 ± 0.45 |
| GGUAAGCAAUAUUACGAGUU | -1.56 ± 0.097 | -0.413 ± 0.12 |
| GGUAAGCAAUAUUACGAUAC | -0.265 ± 0.12 | -0.608 ± 0.16 |
| GGUAAGCAAUAUUACGCAGA |  | -1.84 ± 0.47 |
| GGUAAGCAAUAUUACGCAGG | -2.05 ± 0.16 | -1.29 ± 0.15 |
| GGUAAGCAAUAUUACGCGAA | -1.27 ± 0.15 | -1.15 ± 0.16 |
| GGUAAGCAAUAUUACGGACC | -0.973 ± 0.43 |  |
| GGUAAGCAAUAUUACGGAUG | -3.57 ± 0.34 | -2.09 ± 0.18 |
| GGUAAGCAAUAUUACGGCGC | 0.369 ± 0.14 | 0.841 ± 0.18 |
